The test system of the series is K562 CRISPRi cells. The series is described as follows: Constant region variant library pooled growth screen, K562. It counts as cell-based, human. The following applies: sgRNA constant region variants, un-modified constant region cr995. Summed up: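 Cells were selected with puromycin for 2 days and then kept in RPMI-1640 spinner cultures, with duplicates handled separately. Targeting sequences comprised 3 sgRNAs per essential gene for 10 genes plus six non-targeting controls. Activities were normalized against pairing with the unmodified scaffold.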

Setting [1] is: activity relative to the original.
[2] abbreviates: relative to the original, CRISPRi.

B1: cr837 (nucleic acid)
guide: GTTTAAGAGCTAAGCTGGAAACAGCATAGCAAGTTTAAATAAGGCTAGTCCGTTATCAACTTGAAAAAGTGGCACCCAGTCGGTGCT
modifications: listed as DNA, chemistry not fully specified
In turn, B1 returned a Mean relative activity under setting [1] of 0.5543.

B2: cr265 (nucleic acid)
guide: GTTTAAGAGCTAAGCTGGAAACAGCATAGCAAGTTTAAATAAGGTTAGTCCGTTATCAACTTGAAAAAGTGGCACCGAGTCGGTGCT
modifications: listed as DNA, chemistry not fully specified
As for B2, the Mean relative activity under setting [2] was 0.5157.

B3: cr530 (nucleic acid)
guide: GTTTAAGAGCTAAGCTGGAAACAGCATAGCAAGTTTAAATAAGGCTAGCCCGATATCAACTTGAACAAGTGGCACCGAGTCGGTGCT
modifications: listed as DNA, chemistry not fully specified
Under setting [2], B3 came in with a Mean relative activity of 0.4998.

B4: cr940 (nucleic acid)
guide: GTTTAAGAGCTAAGCTGGAAACAGCATAGCAAGCTTAAATAAGGCTAGTCCGTTATCAACGTGAAAACGTGGCACCGAGTCGGTGCT
modifications: listed as DNA, chemistry not fully specified
For B4, the Mean relative activity under setting [1] was 0.5399.

B5: cr005 (nucleic acid)
guide: GCTTAAGAGCTAAGCTGGAAACAGCATAGCAAGTTTAAATAAGGCTAGTCCGTTATCAACTTGAAAAAGTGGCACCGAGTCGGTGCT
modifications: listed as DNA, chemistry not fully specified
The molecule B5 yielded a Mean relative activity under setting [2] of 0.5108.

B6: cr724 (nucleic acid)
guide: GTTTAAGAGCTAAGCTGGAAACAGCATAGCAAGTTTAAATAAGGCTAGTCCGTTATCGACTTGAAAAAGTGGCACCGAGTCGGTGCT
modifications: listed as DNA, chemistry not fully specified
With B6, the Mean relative activity under setting [2] amounted to 0.5177.

B7: cr120 (nucleic acid)
guide: GTTTAAGAGCTAAGCTGGAAACAGCATAGCAAGTTTAAATAAGGCTAGTCCGTTATCAACTTGAGAAAGTGGCACCCAGTGGGTGCT
modifications: listed as DNA, chemistry not fully specified
B7 yielded a Mean relative activity under setting [2] of 0.5005.

B8: cr659 (nucleic acid)
guide: GTTTAAGAGCTAAGCTGGAAACAGCATAGCAAGTTTACATAAGGCTAGTCCGTTATCAACTTGAAAAAGTGGCACCGAGTCGGTGCT
modifications: listed as DNA, chemistry not fully specified
In the case of B8, the Mean relative activity under setting [2] is 0.504.

B9: cr511 (nucleic acid)
guide: GTTTAAGAGCTAAGCTGGAAACAGCATTGCCAGTTTAAATAAGGCTAGTCCGTTATCAACTTGAAAAAGTGGCACCGCGTCGGTGCT
modifications: listed as DNA, chemistry not fully specified
For B9, the Mean relative activity under setting [2] is on record as 0.5247.

B10: cr190 (nucleic acid)
guide: GTTTAAGAGCTAAGCTGGAAACAGCATAGCAAGTTTAAATAAGGCTAGTCCGTAATTAACTTGAAAAAGTGGCACCGAGACGGTGCT
modifications: listed as DNA, chemistry not fully specified
Turning to B10, the Mean relative activity under setting [2] is listed as 0.5036.

B11: cr427 (nucleic acid)
guide: GTTTAAGAGCTAAGCTGGAAACAGCATAGCAAGTTTAAATAAGGCTAGTCCGTTATAAACTTGAAAAAGTGGCACCGAATCGGTGCT
modifications: listed as DNA, chemistry not fully specified
The molecule B11 came in with a Mean relative activity under setting [1] of 0.5383.

B12: cr599 (nucleic acid)
guide: GTTTAAGAGCTAAGCTGGAAACAGCATAGCAAGTTTAAATAAGGCTAGCCCGTTATCAACGTGAAAAAGTGGCACCGAGTCGGTGCT
modifications: listed as DNA, chemistry not fully specified
As for B12, the Mean relative activity under setting [2] was determined as 0.5112.

B13: cr824 (nucleic acid)
guide: GTTTAAGAGCTAAGCTGGAAACAGCATAGCAAGTTTAAATAAGGCTAGTCCGTTATCAACTTGACAAAGTGGCACCGAGGCGGTGCT
modifications: listed as DNA, chemistry not fully specified
Under setting [2], B13 gave a Mean relative activity of 0.499.

B14: cr846 (nucleic acid)
guide: GTTTAAGAGCTAAGCTGGAAACAGCATGGCAAGTTTAAATAAGGCTAGTCCGTTATCAACTTAAAAAAGTGGCACCGGGTCGGTGCT
modifications: listed as DNA, chemistry not fully specified
As for B14, the Mean relative activity under setting [1] stood at 0.5528.

B15: cr548 (nucleic acid)
guide: GTTTAAGAGCTAAGCTGGAAACAGCATAGCAAGTTTAAATAAGGCTAGTCCGTTATCAACTTGAAAAAGTGGCAACGAGTCGGTGCT
modifications: listed as DNA, chemistry not fully specified
B15 registered a Mean relative activity under setting [2] of 0.513.

B16: cr430 (nucleic acid)
guide: GTTTAAGAGCTAAGCTGGAAACAGCATAGCAAGTTTAAATAAGACTAGTTCGTTATCAAATTGAAAAATTGGCACAGAGTCTGTGCT
modifications: listed as DNA, chemistry not fully specified
Under setting [1], B16 had a Mean relative activity of 0.5328.

B17: cr166 (nucleic acid)
guide: GTTTAAGAGCTAAGCTGGAAACAGCATAGCAAGCTTAAATAAGGCTAGTCCGTTATCAACTTGAAAAAGTGGTACCGAGTCGGTACT
modifications: listed as DNA, chemistry not fully specified
In turn, B17 yielded a Mean relative activity under setting [2] of 0.5245.

B18: cr254 (nucleic acid)
guide: GTTTAAGAGCTAAGCTGGAAACAGCATAGCAAGTTTAAATAAGGCTAGTCCGTTATCAACTTGAAAAAGTGGCACACAGTGTGTGCT
modifications: listed as DNA, chemistry not fully specified
As for B18, the Mean relative activity under setting [1] came to 0.5503.

B19: cr317 (nucleic acid)
guide: GTTTAAGAGCTAAGCTGGAAACAGCATAGCAAGTTTAAATATGGCTAGTCCGTTATCAACTTGAAAAAGTGGCACCGAGTCGGTGCT
modifications: listed as DNA, chemistry not fully specified
Molecule B19 gave a Mean relative activity under setting [2] of 0.5027.

B20: cr342 (nucleic acid)
guide: GTTTAAGAGCTAAGCTGGAAACAGCATAGCAAGTTTAAATAAGGCTAGTCCGTTATTAACTTGATAAAGTGGCACCGAGTCGGTGCT
modifications: listed as DNA, chemistry not fully specified
The molecule B20 displayed a Mean relative activity under setting [1] of 0.5422.

B21: cr072 (nucleic acid)
guide: GTCTAAGTGCTAAGCTGGAAACAGCATAGCAAGTTTAAATAAGGCTAGTCCGTTATCAACTTGAAAAAGTGGCACCGAGTCGGTGCT
modifications: listed as DNA, chemistry not fully specified
Under setting [2], B21 showed a Mean relative activity of 0.5236.

B22: cr675 (nucleic acid)
guide: GTTTAAGAGCTAAGCTGGAAACAGCATAGCAAGCTTAAATAAGGCTAGTCCGTTATCACCTTGAAAAAGGGGCACCGAGTCGGTGCT
modifications: listed as DNA, chemistry not fully specified
Under setting [2], B22 came in with a Mean relative activity of 0.5084.

B23: cr959 (nucleic acid)
guide: GTTTAAGAGCTAAGCTGGAAACAGCATAGCAAGTTTAAATAAGGCTAGTCCGTTATCAATTCGAAATACTGGCACCGAGTCGGTGCT
modifications: listed as DNA, chemistry not fully specified
B23: the Mean relative activity under setting [1] stood at 0.5251.

B24: cr101 (nucleic acid)
guide: GTTTAAGAGCTAAGCTGGAAACAGCATAGCAAGTTTAAATAAGGCTAGTCCGTTATCAACTTGAAAAAGTGGCGCCGAGTCGGTGCT
modifications: listed as DNA, chemistry not fully specified
Turning to B24, the Mean relative activity under setting [1] was 1.048.

B25: cr098 (nucleic acid)
guide: GTTTACGTGCTAAGCTGGAAACAGCATAGCAAGTTTAAATAAGGCTAGTCCGTTATCAACTTGAAAAAGTGGCACCGAGTCGGTGCT
modifications: listed as DNA, chemistry not fully specified
B25 gave a Mean relative activity under setting [1] of 0.534.

B26: cr255 (nucleic acid)
guide: GTTTAAGAGCTAAGCTGGAAACAGCATAGCAAGCTTAAATAAGGCTAGTCCGTTATCAACTTGAAAAAGTGGGACCGAGTCGGTCCT
modifications: listed as DNA, chemistry not fully specified
Under setting [2], B26 registered a Mean relative activity of 0.5097.

B27: cr611 (nucleic acid)
guide: GTTTAAGAGCTAAGCTGGAAACAGCATAGCAAGTTTAAATAAGGCTAGTCCGTTAGAAACTTGAAAAAGTGGCACCGAATCGGTGCT
modifications: listed as DNA, chemistry not fully specified
The molecule B27 returned a Mean relative activity under setting [2] of 0.4954.

B28: cr814 (nucleic acid)
guide: GTTTAAGAGCTAAGCTGGAAACAGCATAGCAAGTTTAAATAAGGCTAGTCCGTTATCAACTTGAAAAAGTGGGTCCGAGTCGGACCT
modifications: listed as DNA, chemistry not fully specified
Turning to B28, the Mean relative activity under setting [1] is listed as 1.048.

B29: cr150 (nucleic acid)
guide: GTTTAAGAGCTAAGCTGGAAACAGCATAGCAAGTTTAAATAAGGCTAGTCCGTTATCAACTTGAAAAAGTGGCAGCGAGTCGGTGCT
modifications: listed as DNA, chemistry not fully specified
Molecule B29 came in with a Mean relative activity under setting [2] of 0.523.

The values are drawn from patent publication US20220259593A1, “CONTROL OF MAMMALIAN GENE DOSAGE USING CRISPR” (The Regents of the University of California, priority 2019, published 2022).
